To fix the notation:
B1: affinity ligand SEQ ID NO: 154 (designed binder)
chain: MGDEAERWYDLGAAYAARGDYDRAIEYYQRALELDPNDAWAWWELGVAYAARGDYDRAIEYYQRALELDPNNAVAWARLGIAYAARGDYDRAIEYYQRALELDPNNEVARDALEYARRARRCHHHHHH
modifications: biotinylated (AviTag system)
B2: affinity ligand SEQ ID NO: 158 (designed binder)
chain: B1 chain with P70L
modifications: biotinylated (AviTag system)
B3: affinity ligand SEQ ID NO: 155 (designed binder)
chain: B1 chain with L34H, P70T, D111G
modifications: biotinylated (AviTag system)
B4: affinity ligand SEQ ID NO: 164 (designed binder)
chain: MGDEAERWYDLGAAYAARGDYDRAIEYYQRALELDPNDAWAWWELGVAYAARGDYDRAIEYYQRALELDLNNAVAWARLGIAYAARGDYDRAIEYYQRALELDPNNEVARDALEYARRARRC
modifications: biotinylated (AviTag system)
B5: affinity ligand SEQ ID NO: 170 (designed binder)
chain: MGDEADRWYDQGAAYAARGDYDRAIEYYERALELDPNDAWAWWELGVAYAARGDYDRAIEYYQRALELDPNDAVAWARLGHAYAARGDYDRAIEYYQRALELDPNNEAARSNLEYARRAAACGLNDIFEAQKIEWHEHHHHHH
modifications: biotinylated (AviTag system)
B6: affinity ligand SEQ ID NO: 174 (designed binder)
chain: B5 chain with D38N
modifications: biotinylated (AviTag system)
B7: affinity ligand SEQ ID NO: 171 (designed binder)
chain: B5 chain with D10Y, D38N
modifications: biotinylated (AviTag system)
B8: affinity ligand SEQ ID NO: 172 (designed binder)
chain: B5 chain with E29Q, D38N, A77S, Y95H, A108V, S111H, N112L, Y115V
modifications: biotinylated (AviTag system)
B9: affinity ligand SEQ ID NO: 173 (designed binder)
chain: B5 chain with E29Q, D38N, A77S, A108V, S111H, N112L, Y115V
modifications: biotinylated (AviTag system)
B10: affinity ligand SEQ ID NO: 163 (designed binder)
chain: MGHHHHHHDEAERWYDLGAAYAARGDYDRAIEYYQRALELDPNDAWAWWELGVAYAARGDYDRAIEYYQRALELDLNNAVAWARLGIAYAARGDYDRAIEYYQRALELDPNNEVARDALEYARRARRAPKC
modifications: biotinylated (AviTag system)
B11: affinity ligand SEQ ID NO: 156 (designed binder)
chain: MAWAEFRQRLAAIRTRLEALGGSEAELAAFEREIAAFESELQAYAGAGNPEVEALRREAAAIRDELQAYRHNDEAERWYDLGAAYAARGDYDRAIEYYQRALEHDPNDAWAWWELGVAYAARGDYDRAIEYYQRALELDTNNAVAWARLGIAYAARGDYDRAIEYYQRALELDPNNEVARGALEYARRARRHHHHHH
modifications: biotinylated (AviTag system)
B12: affinity ligand SEQ ID NO: 157 (designed binder)
chain: MGLAEAAAREAAARAADEAERWYDLGAAYAARGDYDRAIEYYQRALEHDPNDAWAWWELGVAYAARGDYDRAIEYYQRALELDTNNAVAWARLGIAYAARGDYDRAIEYYQRALELDPNNEVARGALEYARRARRHHHHHH
modifications: biotinylated (AviTag system)
B13: affinity ligand SEQ ID NO: 165 (designed binder)
chain: MDEAAHWEVQGAAYAARGDYDRAIEYYERALELDPNNAWAWEHLGWAYAARGDFDRAIEYYERALELDPDDAHAWFRLGFAYAARGDYDRAIEYYERALELDPEDELARAELESARRARQGQAGQGWAEFRQRLAAIRTRLEALGGSEAELAAFEREIAAFESELQAYAGAGNPEVEALRREAAAIRDELQAYRHNHHHHHHC
modifications: biotinylated (AviTag system)
B14: affinity ligand SEQ ID NO: 167 (designed binder)
chain: B13 chain with H6R, F54Y, A74S, A84V
modifications: biotinylated (AviTag system)
B15: affinity ligand SEQ ID NO: 168 (designed binder)
chain: B13 chain with A4V, H6R, D19G, F54Y, A74E
modifications: biotinylated (AviTag system)
B16: affinity ligand SEQ ID NO: 166 (designed binder)
chain: B13 chain with H6R, A30V, N37D, F54Y, L67V, I92M
modifications: biotinylated (AviTag system)
B17: affinity ligand SEQ ID NO: 80 (designed binder)
chain: MGGGGSAAAGDEADRWAALGAAYAARGDYDRAIEYYQRALELDPNNAWAWWDLGVAYAARGDYDRAIEYYERALELDPDDAHAWFRLGWAYAARGDYDRAIEYYERALELDPEDETARDVLEGARRARQGQAGQGGGSGLNDIFEAQKIEWHECHHHHHH
modifications: biotinylated (AviTag system)
B18: affinity ligand SEQ ID NO: 84 (designed binder)
chain: MGGGGSAAAGDEGGRWEGQGAAYAARGDYDRAIEYYERALELDPNNAWAWWDLGVAYAARGDYDRAIEYYERALELDPDDATAWSRLGHAYAARGDYDRAIEYYERALELDPEDETARYLLEHARRARQGQAGQGGGSGLNDIFEAQKIEWHECHHHHHH
modifications: biotinylated (AviTag system)
B19: affinity ligand SEQ ID NO: 91 (designed binder)
chain: B18 chain with G13A, G14Q, G18N, E37G, D52E, D114N
modifications: biotinylated (AviTag system)
B20: affinity ligand SEQ ID NO: 88 (designed binder)
chain: B18 chain with G13A, G14Q, R15C, G18N, D52E
modifications: biotinylated (AviTag system)
B21: affinity ligand SEQ ID NO: 86 (designed binder)
chain: B18 chain with G13A, G14Q, G18N, Y35C, R38S, D52E, T82I
modifications: biotinylated (AviTag system)
B22: affinity ligand SEQ ID NO: 93 (designed binder)
chain: B18 chain with G13A, G14Q, G18N, D52E, Y63F, A83V, E113V
modifications: biotinylated (AviTag system)
B23: affinity ligand SEQ ID NO: 87 (designed binder)
chain: B18 chain with G13A, G14Q, R15H, G18N, D52E, A83V
modifications: biotinylated (AviTag system)
B24: affinity ligand SEQ ID NO: 79 (designed binder)
chain: MGGGGSAAAGDEADRWADLGAAYAARGDYDRAIEYYQRALELDPNNAWAWWDLGVAYAARGDYDRAIEYYQRALELDPNNAVAWRRLGHAYAARGDYDRAIEYYQRALELDPNNELAREQLERARRARHGQAGQGGGSGLNDIFEAQKIEWHECHHHHHH
modifications: biotinylated (AviTag system)
B25: affinity ligand SEQ ID NO: 81 (designed binder)
chain: B24 chain with D14E, A17Y, D52E, H89I, L116V, E119D, Q120A, R123Y, H129R
modifications: biotinylated (AviTag system)
B26: affinity ligand SEQ ID NO: 82 (designed binder)
chain: B24 chain with D14G, A17Y, D52E, R85A, H89I, L116V, E119D, Q120A, R123Y, H129R
modifications: biotinylated (AviTag system)
B27: affinity ligand SEQ ID NO: 83 (designed binder)
chain: B24 chain with E122G, H129R
modifications: biotinylated (AviTag system)
B28: affinity ligand SEQ ID NO: 85 (designed binder)
chain: B24 chain with D14E, A17D, D18Y, V55L, R85F, H89W, E119S, Q120E, R123N, H129R
modifications: biotinylated (AviTag system)
B29: affinity ligand SEQ ID NO: 94 (designed binder)
chain: MGGGGSAAAGDEAVRWEIQGAAYAARGDYDRAIEYYERALELDPNNAWAWWELGVAYAARGDYDRAIEYYERALELDPDDAHVWFRLGWAYAVRGDYDRAIEYYERALELDPEDELARRILEDARRARQGQAGQGGGSGLNDIFEAQKIEWHECHHHHHH
modifications: biotinylated (AviTag system)

Changes are numbered by the printed parent chain.

The target in the first assay is Dupixent (IgG4 monoclonal antibody). Put plainly: BLI, biotinylated ligand on sensor; 'Binding affinity (nM)'. (In general: BLI is a label-free optical method that tracks binding on a fibre tip over time.)
The term Kd denotes the constant that tells how readily two partners part at equilibrium. Lower therefore signals higher affinity. Consider B1, for which the equilibrium dissociation constant (Kd) worked out at 13 nM.

B2 returned a Kd of 176 nM.

The molecule B3 yielded a dissociation constant Kd of 32 nM.

In turn, B4 yielded a dissociation constant Kd of 82 nM.

For the molecule B5, the dissociation constant Kd is 28 nM.

With B6, the Kd was found to be 221 nM.

With B7, the equilibrium dissociation constant (Kd) amounted to 242 nM.

B8 came in with a Kd of 215 nM.

B9 registered an equilibrium dissociation constant (Kd) of 95 nM.

In turn, B10 had a Kd of 13 nM.

Consider B11, for which the Kd was determined as 7 nM.

In the case of B12, the dissociation constant (Kd) amounted to 8 nM.

B13 had a Kd of 31 nM.

The molecule B14 registered a dissociation constant Kd of 31 nM.

Molecule B15 returned a dissociation constant Kd of 232 nM.

Consider B16, for which the equilibrium dissociation constant (Kd) is 120 nM.

The target of another assay is Praluent (IgG1 monoclonal antibody). Described as above.
On to B1, for which the Kd is under 1 nM.

Consider B2, for which the Kd was under 1 nM.

For B3, the equilibrium dissociation constant (Kd) was under 1 nM.

B4 had a Kd of under 1 nM.

In the case of B5, the dissociation constant Kd was under 1 nM.

In the case of B6, the Kd was under 1 nM.

Consider B7, for which the dissociation constant (Kd) was under 1 nM.

B8 yielded a Kd of under 1 nM.

Molecule B9 yielded a Kd of under 1 nM.

For B10, the dissociation constant Kd was under 1 nM.

In turn, B11 yielded a dissociation constant (Kd) of under 1 nM.

With B12, the Kd was under 1 nM.

With B13, the Kd is under 1 nM.

Regarding B14, the Kd is under 1 nM.

B15 displayed a Kd of under 1 nM.

B16 yielded a dissociation constant Kd of under 1 nM.

In the next assay the target is Ajovy (IgG2 monoclonal antibody). The assay is described as above.
With B1, the dissociation constant Kd was determined as 92 nM.

Turning to B2, the dissociation constant Kd came to 282 nM.

Take B3: the dissociation constant (Kd) worked out at 117 nM.

B11 gave a Kd of 224 nM.

B12 had a Kd of 270 nM.

The next assay addresses dimeric human IgG-lambda (Southern Biotech, Birmingham AL). Put plainly: BLI (ForteBio), biotinylated ligand on sensor, 1:1 fit.
In the case of B17, the dissociation constant Kd is under 1 nM.

The molecule B18 gave a Kd of under 1 nM.

The molecule B19 showed an equilibrium dissociation constant (Kd) of under 1 nM.

With B20, the Kd was under 1 nM.

In the case of B21, the Kd was under 1 nM.

Molecule B22 gave a Kd of under 1 nM.

For the molecule B23, the dissociation constant Kd is under 1 nM.

B24 gave a dissociation constant (Kd) of under 1 nM.

With B25, the equilibrium dissociation constant (Kd) was under 1 nM.

B26 showed a dissociation constant Kd of under 1 nM.

Consider B27, for which the Kd was under 1 nM.

The molecule B28 showed an equilibrium dissociation constant (Kd) of under 1 nM.

B29 displayed a Kd of under 1 nM.

The target in a further assay is Tremfya Fab with a lambda light chain and binding specificity for IL23 (from the monoclonal antibody guselkumab). The description is as above.
B17 registered a Kd of 4 nM.

The molecule B18 registered a Kd of 18 nM.

B19: the dissociation constant (Kd) came out at 11 nM.

Molecule B20 came in with a Kd of 10 nM.

B21 displayed an equilibrium dissociation constant (Kd) of 8 nM.

As for B22, the Kd is 4 nM.

For B23, the dissociation constant (Kd) was determined as 10 nM.

In the case of B24, the dissociation constant Kd stood at 28 nM.

Molecule B25 had a Kd of 8 nM.

B26 returned a dissociation constant (Kd) of 6 nM.

In turn, B27 came in with a Kd of 8 nM.

Regarding B28, the Kd came out at 26 nM.

Turning to B29, the dissociation constant Kd was 3 nM.

For another assay, the target named is Herceptin Fab with a kappa light chain and binding specificity for Her2/neu (from the monoclonal antibody trastuzumab). Described as above.
Turning to B17, the equilibrium dissociation constant (Kd) amounted to 7 nM.

On to B18, for which the Kd stood at 32 nM.

Molecule B19 gave a dissociation constant (Kd) of 46 nM.

In turn, B20 displayed a Kd of 32 nM.

Take B21: the Kd was 28 nM.

Molecule B22 returned a Kd of 15 nM.

For B23, the equilibrium dissociation constant (Kd) is 84 nM.

B24 registered a Kd of 67 nM.

Regarding B25, the Kd was 31 nM.

In turn, B26 came in with a dissociation constant Kd of 23 nM.

Take B27: the Kd was determined as 22 nM.

As to B28, the dissociation constant Kd is 53 nM.

B29 gave a Kd of 14 nM.
